{"source": "patent US20100322948A1", "about": "“Bone morphogenetic protein (BMP)-binding domains of proteins of the repulsive guidance molecule (RGM) protein family and functional fragments thereof, and use of same” (ABBOTT GMBH & CO. KG, priority 2007, published 2010)", "molecules": {"B1": {"name": "fragment #786: Fc fusion protein of human RGM A amino acids 47-168 (protein)", "chain": "PCKILKCNSEFWSATSGSHAPASDDTPEFCAALRSYALCTRRTARTCRGDLAYHSAVHGIEDLMSQHNCSKDGPTSQPRLRTLPPAGDSQERSDSPEICHYEKSFHKHSATPNYTHCGLFGD", "modifications": "left off: small tags and cut ends; a dimerising Fc or GST"}}, "key": {"[1]": {"molecular_target": "T1, BMP-4 (Homo sapiens, UniProt P12644)", "T1 construct": "purchased R&D Systems 314-BM", "T1 sequence (P12644 293-408)": "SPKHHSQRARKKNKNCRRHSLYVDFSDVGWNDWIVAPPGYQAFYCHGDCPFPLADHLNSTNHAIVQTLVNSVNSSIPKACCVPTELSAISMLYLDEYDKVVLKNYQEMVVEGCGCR", "assay": "In vitro interaction test, variant B: immobilized RGMA-Fc fusion proteins, detection of BMP-4 binding", "method": "(§1) Test Method 4: In Vitro Interaction Test for Determining the Interaction between RGMA and BMP-2 and -4\n(§2) The interaction tests were carried out as described below:\n(§3) Variant B: Immobilization of Various RGMA-Fc Fusion Proteins and Detection of the Binding of the BMP-2/ or -4 Protein\n(§4) Immunoplate Cert. MaxiSorp F96 (Nunc, 439454)\n(§5) RGMA-Fc fragments • Volume used: 2.5 μg/mL in Na2CO3; addition: 50 μL per well • 1 hour at 37° C. in damp chamber\n(§6) 3. Washing step: • Wash 3× with PBS/0.02% Tween 20\n(§7) 4. Blocking: • 3% BSA in PBS/0.02% Tween, 1 hour at 37° C. in damp chamber • Addition : 200 μL per well, incubation: 1 hour at 37° C. in damp chamber\n(§8) Recombinant human BMP-2, Catalog No.: 355-BM, Company: R&D Systems; or\n(§9) Recombinant human RGM A, R&D Systems; Prod. #2495-RM,\n(§10) recombinant human BMP-4, Catalog No.: 314-BM, Company: R&D Systems;\n(§11) Concentration in each case: 10 μg/mL\n(§12) Dilution steps: in each case 1:2 with PBS/0.02% Tween 20\n(§13) 6. Washing step: • Wash 3× with PBS/0.02% Tween 20\n(§14) Anti-human BMP-4 biotin antibody; Catalog No.: BAM7572, 1:200 in 1% BSA-PBS-T\n(§15) 8. Washing step: • Wash 3× with PBS/0.02% Tween 20\n10. Washing step: • Wash 3× with PBS/0.02% Tween 20\nImmunoPure TMB substrate kit; (Pierce, #34021) • Development period: approximately 1-30 minutes • 1:1 mixture of […]; addition: 50 μL per well\n12. Stop: • 2.5 M H2SO4; addition: 50 μL per well\nThe test was conducted according to test method 4, variant B above, with immobilization of the fusion proteins (1 mg/mL). The binding of BMP-4 was detected using anti-BMP-4 biotin antibodies.\n(§16) The test was conducted according to test method 4, variant B above, with immobilization of the fusion proteins (1 mg/mL). The binding of BMP-4 and -2 was detected using anti-BMP-4 and anti-BMP-2 biotin antibodies, respectively."}, "[2]": {"molecular_target": "T2, BMP-2 (Homo sapiens, UniProt P12643)", "T2 construct": "purchased R&D Systems 355-BM; host or cells: CHO cells (said of #355-BM in the BRE-Luc section)", "T2 sequence (P12643 283-396)": "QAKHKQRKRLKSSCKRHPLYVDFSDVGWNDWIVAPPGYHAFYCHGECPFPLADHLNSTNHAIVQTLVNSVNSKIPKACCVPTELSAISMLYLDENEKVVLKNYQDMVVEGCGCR", "assay": "In vitro interaction test, variant B: immobilized RGMA-Fc fusion proteins, detection of BMP-2 binding", "conditions": "Working Example 2, FIG. 4, anti-BMP-2 biotin antibodies", "method": "as §1, §2, §3, §4, §5, §6, §7, §8, §9, §10, §11, §12, §13, §14, §15\n10. Washing step: • Wash 3× with PBS/0.02% Tween 20 […]\nas §16"}, "[3]": {"molecular_target": "T1, BMP-4", "assay": "In vitro interaction test, variant A: immobilized BMP-4, detection of binding of RGMA-Fc fusion proteins", "conditions": "Working Example 3, FIG. 5", "method": "as §1, §2\nVariant A: Immobilization of the BMP-2/ or -4 Protein and Detection of the Binding of Various RGMA-Fc Fusion Proteins\n1. Plate: • Immunoplate Cert. MaxiSorp F96 (Nunc, 439454)\nRecombinant human BMP-2, Catalog No.: 355-BM, Company: R&D Systems; Recombinant human RGM A, R&D Systems; Prod. #2495-RM, or\nRecombinant human BMP-4, Catalog No.: 314-BM, Company: R&D Systems; • Concentration: 10 μg/mL • Volume used: 2.5 μg/mL in Na2CO3; addition: 50 μL per well • 1 hour at 37° C. in damp chamber\n3. Washing step: • Wash 3× with PBS/[…] Tween 20\n4. Blocking: • 3% BSA in PBS/0.02% Tween, 1 hour at 37° C. in damp chamber; addition: 200 μL per well\nRGMA-Fc fragments, • 1 μg/mL initial concentration, then dilution down to 1:2 using PBS/0.02% Tween20 • […] • 1 hour at 37° C. in damp chamber\nas §13\nBiotin anti-human Fc (R&D-Systems), Catalog No.: 709065; 1 mg/mL; • 1:200 in 0.6% BAS/PBS-T (0.02% Tween) • Addition: 50 μL per well • 1 hour at 37° C. in damp chamber\n8. Secondary antibody: Strep. POD (Roche); Catalog No.: 11089153001 • 500 U; 1:5000 in 0.6% BAS/PBS-T (0.02% Tween) • Addition: 50 μL per well • 1 hour at 37° C. in damp chamber\n9. Washing step: • Wash 3× with PBS/0.02% Tween 20\nImmunoPure TMB substrate kit; Pierce, #34021 • Development period: approximately 1-30 minutes • 1:1 mixture of […]; addition: 50 μL per well\n11. Stop: • 2.5 M H2SO4; addition: 50 μL per well\nThe test was conducted according to test method 4, variant A above, with immobilization of BMP-4 (1 mg/mL). The binding of the fusion proteins was detected using anti-human-Fc or anti-Myc anti-rabbit (Invitrogen) antibodies.\nThe test was conducted according to test method 4, variant A above, with immobilization of BMP-4 (1 mg/mL). The binding of the fusion proteins was detected using anti-human-antibodies."}}, "data": [{"molecule": "B1", "values": [{"measurement": "binding of BMP-4", "setting": "[1]; Working Example 1, FIG. 3, anti-BMP-4 biotin antibodies", "result": "more significant binding"}, {"measurement": "binding of BMP-4", "setting": "[1]; Working Example 2, FIG. 4, anti-BMP-4 biotin antibodies", "result": "more significant binding"}, {"measurement": "binding of BMP-2", "setting": "[2]", "result": "more significant binding"}, {"measurement": "binding to immobilized BMP-4, comparison among fragments", "setting": "[3]", "result": "most strongly"}, {"measurement": "binding to immobilized BMP-4", "setting": "[3]; detection anti-human-Fc or anti-Myc", "result": "Significant concentration-dependent binding"}]}]}
